Experimental data taken from patent publication US7700101B2, “Reagents and method for modulating Dkk-mediated interactions” (Wyeth, priority 2001, dated 2010).
Entries after “also recorded” stand apart in the source; their conditions may differ.

Key:
[1] = target: T1, LRP5 (Homo sapiens, UniProt O75197); test: TCF-luciferase assay in HOB-03-CE6 cells, LRP5; assay type: cell-based
T1 construct: Site-directed mutants of LRP5 were generated in the full-length human LRP5 cDNA; expressed in transfected cells; host or cells: HOB-03-CE6 osteoblastic cells; U2OS osteosarcoma cells; HEK293
T1 sequence (O75197 32-1615): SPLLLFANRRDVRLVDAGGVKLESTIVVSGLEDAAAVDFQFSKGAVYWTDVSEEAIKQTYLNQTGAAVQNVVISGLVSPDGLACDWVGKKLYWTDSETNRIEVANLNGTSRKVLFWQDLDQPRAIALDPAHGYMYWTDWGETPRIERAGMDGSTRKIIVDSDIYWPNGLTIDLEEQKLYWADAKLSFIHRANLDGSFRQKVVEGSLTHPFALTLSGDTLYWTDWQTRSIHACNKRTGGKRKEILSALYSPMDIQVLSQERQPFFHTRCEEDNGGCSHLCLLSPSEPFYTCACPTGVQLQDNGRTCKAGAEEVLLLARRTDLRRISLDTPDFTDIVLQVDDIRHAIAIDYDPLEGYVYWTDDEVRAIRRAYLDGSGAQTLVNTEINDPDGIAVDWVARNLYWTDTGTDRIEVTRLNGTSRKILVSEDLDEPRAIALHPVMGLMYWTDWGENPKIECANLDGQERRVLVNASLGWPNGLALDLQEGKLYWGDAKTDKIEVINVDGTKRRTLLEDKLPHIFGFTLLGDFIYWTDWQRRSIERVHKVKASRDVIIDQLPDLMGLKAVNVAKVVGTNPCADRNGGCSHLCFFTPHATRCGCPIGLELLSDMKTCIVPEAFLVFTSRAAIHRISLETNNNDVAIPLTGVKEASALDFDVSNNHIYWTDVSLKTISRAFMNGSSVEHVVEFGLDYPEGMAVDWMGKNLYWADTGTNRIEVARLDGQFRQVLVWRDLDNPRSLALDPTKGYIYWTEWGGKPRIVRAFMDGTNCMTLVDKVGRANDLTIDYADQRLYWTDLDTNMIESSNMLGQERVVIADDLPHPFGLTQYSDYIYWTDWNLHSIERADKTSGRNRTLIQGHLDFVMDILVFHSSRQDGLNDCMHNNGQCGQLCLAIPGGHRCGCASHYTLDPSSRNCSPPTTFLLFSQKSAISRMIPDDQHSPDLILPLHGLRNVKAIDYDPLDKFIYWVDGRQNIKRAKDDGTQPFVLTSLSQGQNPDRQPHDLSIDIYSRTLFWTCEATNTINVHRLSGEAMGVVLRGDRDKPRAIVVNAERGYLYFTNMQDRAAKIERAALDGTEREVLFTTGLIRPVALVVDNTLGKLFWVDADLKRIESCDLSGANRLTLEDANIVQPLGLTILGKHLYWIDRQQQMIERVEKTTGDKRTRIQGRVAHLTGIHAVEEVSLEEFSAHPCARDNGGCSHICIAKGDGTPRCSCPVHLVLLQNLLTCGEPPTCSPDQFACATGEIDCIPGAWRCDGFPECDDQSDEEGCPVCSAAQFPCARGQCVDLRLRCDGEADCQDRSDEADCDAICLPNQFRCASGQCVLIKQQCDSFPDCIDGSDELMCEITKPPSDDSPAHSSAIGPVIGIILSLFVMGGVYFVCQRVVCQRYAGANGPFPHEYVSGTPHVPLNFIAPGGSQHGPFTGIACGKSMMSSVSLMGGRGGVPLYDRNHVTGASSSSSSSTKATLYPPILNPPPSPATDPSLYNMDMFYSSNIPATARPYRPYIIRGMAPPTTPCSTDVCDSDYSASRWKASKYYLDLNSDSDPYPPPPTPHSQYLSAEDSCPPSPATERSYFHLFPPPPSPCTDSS
Method: HOB-03-CE6 osteoblastic cells developed by Wyeth Ayerst (Philadelphia, Pa.) were seeded into 24-well plates at 150,000 cells per well in 1 ml of the growth media (D-MEM/F12 phenol red-free) containing 10% (v/v) heat-inactivated FBS, 1×penicillin streptomycin, and 1X Glutamax-1, and incubated overnight at 34° C. The following day, the cells were transfected using Lipofectamine 2000® (as described by the manufacturer, Invitrogen) in OptiMEM (Invitrogen) with 0.35 μg/well of LRP5, HBM, or control plasmid DNA (empty vector pcDNA3.1) and either Wnt1 or Wnt3 a plasmid DNA. Similar experiments were performed with LRP6 plasmid DNA (0.35 μg/well) or a control pEDdpc4 empty vector. […] All wells were transfected with 0.025 μg/well of CMV beta-galactosidase plasmid DNA and 0.35 μg/well 16X TCF(ASyluciferase reporter DNA (developed by Ramesh Bhat, Wyeth-Ayerst (Philadelphia, Pa.)). After 4 hours of incubation, the cells were rinsed and 1 ml of fresh growth media was added to each well. The cells were cultured overnight at 34° C., followed by a wash and a change of media. Cells were cultured for an additional 18-24 hours at 37° C. Cells were then lysed with 50 μl/well of 1X lysis buffer. The extracts were assayed for beta-galactosidase activity (Galacto Reaction Buffer Diluent & Light Emission Accelerator, Tropix) using 5 μl extract+50 μl beta-galactosidase diluent and luciferase activity (Luciferase Assay Reagent, Promega) using 20 μl extract.

[2] = test system: canonical Wnt pathway; test: Xenopus embryo assay, hDkk-1 dose-response (enlarged anterior structures); assay type: in vivo; conditions: 250 pg/embryo hDkk-1 RNA; FIG. 10
Method: (§1) mRNA for microinjection into Xenopus embryos is generated by in vitro transcription using the CDNA constructs in the pCS2^+ vector described above as template. RNA is synthesized using the Ambion mMessage mMachine high yield capped RNA transcription kit (Cat. #1340) following the manufacturer's specifications for the Sp6 polymerase reactions. RNA products were brought up to a final volume of 50 μl in sterile, glass-distilled water and purified over Quick Spin-Columns for Radiolabelled RNA Purification G50-Sephadex (Roche, Cat. #1274015) following the manufacturer's specifications. The resulting eluate was finally extracted with phenol:chloroform:isoamyl alcohol and isopropanol precipitated using standard protocols (Sambrook et al., 1989). Final RNA volumes were approximately 50 μl. RNA concentration was determined by absorbance values at 260 nm and 280 nm. RNA integrity was visualized by ethidium bromide staining of denaturing (formaldehyde) agarose gel electrophoresis (Sambrook et al., 1989). Various amounts of RNA (2 pg to 1 ng) are injected into the ventral blastomere of the 4- or 8-cell Xenopus embryo. These protocols are described in Moon et al., Technique-J. of Methods in Cell and Mol. Biol. 1: 76-89 (1989), and Peng, Meth. Cell. Biol. 36: 657-62 (1991). […]

[3] = test system: Zmax/LRP5-mediated Wnt signaling; test: Xenopus embryo assay, hDkk-1 modulation of Zmax/LRP5+Wnt5a signaling; assay type: in vivo; conditions: hDkk-1 250 pg, FIG. 11
Method: as §1

[4] = target: LRP6 (Homo sapiens, UniProt O75581); test: Cell-based TCF reporter high-throughput assay, LRP6 cDNA; set-up: Full length LRP6 was isolated from the pED6dpc4 vector; expressed in transfected cells; host or cells: HOB-03-CE6 osteoblastic cells; U2OS osteosarcoma cells; HEK293; conditions: U2OS cells, Wnt1 or Wnt3a/Wnt1 co-transfected, FIG. 20
Sequence of LRP6 (O75581 20-1613): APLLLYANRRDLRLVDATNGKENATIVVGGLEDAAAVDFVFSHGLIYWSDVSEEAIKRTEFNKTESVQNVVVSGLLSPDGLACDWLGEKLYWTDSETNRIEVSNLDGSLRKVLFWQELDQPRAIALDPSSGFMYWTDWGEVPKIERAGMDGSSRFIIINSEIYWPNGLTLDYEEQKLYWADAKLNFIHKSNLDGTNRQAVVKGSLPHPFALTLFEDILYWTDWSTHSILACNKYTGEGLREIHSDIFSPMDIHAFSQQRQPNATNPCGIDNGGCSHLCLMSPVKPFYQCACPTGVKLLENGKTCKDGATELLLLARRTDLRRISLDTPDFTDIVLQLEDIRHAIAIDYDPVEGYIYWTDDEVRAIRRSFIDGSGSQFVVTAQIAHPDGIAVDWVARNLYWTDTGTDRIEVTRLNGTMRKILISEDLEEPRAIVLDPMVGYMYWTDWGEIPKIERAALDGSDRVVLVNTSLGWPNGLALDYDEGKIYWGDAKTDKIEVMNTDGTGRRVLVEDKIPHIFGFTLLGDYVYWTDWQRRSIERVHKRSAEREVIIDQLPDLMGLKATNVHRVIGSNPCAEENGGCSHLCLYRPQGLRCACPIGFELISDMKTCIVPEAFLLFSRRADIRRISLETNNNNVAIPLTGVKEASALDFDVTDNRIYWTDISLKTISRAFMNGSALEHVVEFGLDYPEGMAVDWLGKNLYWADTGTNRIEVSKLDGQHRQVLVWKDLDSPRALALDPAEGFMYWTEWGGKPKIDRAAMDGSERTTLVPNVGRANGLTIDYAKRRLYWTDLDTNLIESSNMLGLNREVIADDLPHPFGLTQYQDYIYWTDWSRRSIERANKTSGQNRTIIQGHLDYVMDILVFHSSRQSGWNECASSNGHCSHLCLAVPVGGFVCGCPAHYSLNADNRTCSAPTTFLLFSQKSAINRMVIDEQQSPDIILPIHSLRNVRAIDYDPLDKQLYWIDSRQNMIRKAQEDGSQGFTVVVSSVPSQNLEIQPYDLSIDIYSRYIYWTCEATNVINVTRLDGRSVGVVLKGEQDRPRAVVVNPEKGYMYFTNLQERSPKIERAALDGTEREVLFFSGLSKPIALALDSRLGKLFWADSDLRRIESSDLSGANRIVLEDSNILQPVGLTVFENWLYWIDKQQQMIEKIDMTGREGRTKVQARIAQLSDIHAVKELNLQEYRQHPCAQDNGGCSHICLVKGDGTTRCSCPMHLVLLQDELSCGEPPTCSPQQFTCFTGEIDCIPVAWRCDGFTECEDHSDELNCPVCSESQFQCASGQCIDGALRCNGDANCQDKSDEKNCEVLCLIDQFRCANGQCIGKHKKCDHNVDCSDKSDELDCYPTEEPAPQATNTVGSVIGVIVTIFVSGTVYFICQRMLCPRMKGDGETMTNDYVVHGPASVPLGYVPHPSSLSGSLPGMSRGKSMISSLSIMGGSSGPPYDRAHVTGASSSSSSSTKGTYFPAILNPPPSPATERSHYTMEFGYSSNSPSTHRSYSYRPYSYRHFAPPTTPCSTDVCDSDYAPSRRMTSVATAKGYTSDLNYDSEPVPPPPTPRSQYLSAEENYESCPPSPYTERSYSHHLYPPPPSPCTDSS
From the text: To develop a high throughput assay, the TCF-luciferase assay described in Example 7 was modified utilizing low level expression of endogenous LRP5/6 in U2OS and HEK293 cells. However, HOB-03-CE6 cells and any other cells which show a differential response to Dkk depending on whether LRP5, LRP6 or HBM are expressed. Using U2OS (human osteosarcoma) and HEK293 (ATCC) cells, the TCF-luciferase and tk-Renilla reporter element constructs were co-transfected along with Wnt3a/1 and Dkk. Wnt3a alone, by using endogenous LRP5/6, was able to stimulate TCF reporter gene activation. When Dkk, is co-transfected with Wnt3a/Wnt 1 and reporters (TCF-luci and tk-Renilla), DEkk represses reporter element activity. In addition, the TCF-luci signal is activated by Wnt3a/Wnt1 can be repressed by the addition of Dkk-enriched conditioned media to the cells containing Wnt3a/Wnt1 and reporters.
The Dkk-mediated repression of the reporter is dependent upon the concentration of transfected Dkk cDNA or on the amount of Dkk-conditioned media added. In addition, the Dkk-mediated reporter suppression can be altered by the co-transfection of LRP5, LRP6, and HBM cDNAs in the U2OS or HEK293 cells. In general, U2OS cells show greater sensitivity to Dkk-mediated reporter suppression than that in HEK-293 cells. […]

Substance: Dkk-1: Dickkopf-1 protein, antagonist of the Wnt pathway; expressed from human cDNA (RNA or plasmid)
- LRP5/Wnt1 mediated TCF-luciferase activity ([1]; Wnt1, FIG. 14): significantly antagonized TCF-luciferase activity; also recorded: had no effect on LRP5 or HBM mediated TCF-luciferase activity
- LRP5/Wnt3a mediated TCF-luciferase activity ([1]; Wnt3a, FIG. 15): able to antagonize LRP5/Wnt3a
- embryos displaying enlarged anterior structures (big heads) [2]: over 90%
- repression of Zmax/LRP5-mediated Wnt signaling [3]: repressed
- Dkk-mediated repression of LRP6 signaling (TCF reporter) [4]: represses
- Dkk-mediated repression of LRP6 signaling (TCF reporter) ([4]; listed as Dkk1): maximal
